Reference: patent USRE50178 (CELLTECH R AND D, dated 2024)

Biological target: T1, CD3 antigen (human, UniProt P07766 23-207)
T1 construct: whole, on cells; also called OKT3 antigen; antigen in the T-cell receptor-CD3 complex
Assay: competition with Fl-OKT3 on HPB-ALL cells, flow cytometry

B1: OKT3 gL221 / gH341 (JA178), basic grafted product (antibody, human IgG4, V domains shown)
VH: QVQLVESGGGVVQPGRSLRLSCSSSGYTFTRYTMHWVRQAPGKGLEWVAYINPSRGYTNYNQKFKDRFTISRDNSKNTLFLQMDSLRPEDTGVYFCARYYDDHYCLDYWGQGTTLTVSS
VL: DIQMTQSPSSLSASVGDRVTITCSASSSVSYMNWYQQTPGKAPKLLIYDTSKLASGVPSRFSGSGSGTDYTFTISSLQPEDIATYYCQQWSSNPFTFGQGTKLQITR
notes: Human IgG4 and human kappa constant regions; also called minimally grafted OKT3 antibody
B1: no binding.
